Measured values from patent publication US20140044730A1 (Regeneron, published 2014).

Columns and labels:
[1] = target: T1, human PCSK9 with a C-terminal myc-myc-hexahistidine tag (human, UniProt Q8NBP7 31-692, limits assumed); assay: blocking ELISA, hPCSK9-mmH vs coated hLDLR EGFA-hFc; non-blocking at pH 5.75
T1 construct: also called hPCSK9-mmH; hPCSK9-mmh; not shown: C-terminal myc-myc-hexahistidine tag

[2] = target: T1, human PCSK9 with a C-terminal …; assay: SPR 25C, purified mAb captured
[3] = target: T1, human PCSK9 with a C-terminal …; assay: SPR (Biacore), 37 °C; antibody captured on anti-human Fc surface, hPCSK9-mmH injected (3.125-50 nM); association at pH 7.4, dissociation at pH 6.0
Protocol: (§1) A Biacore CM4 sensor chip was derivatized with a Fab′2 polyclonal anti-human Fc antibody to capture human antibodies. […] Dissociation (kd) rate constants were determined by processing and fitting the data using Scrubber version 2.0 curve fitting software. Dissociative half-lives (t_{1/2}) were calculated from the dissociation rate constants as: t_{1/2} (min)=(In2/kd)/60.

[4] = target: T1, human PCSK9 with a C-terminal …; assay: SPR (Biacore), 37 °C; antibody captured on anti-human Fc surface, hPCSK9-mmH injected (3.125-50 nM); association at pH 7.4, dissociation at pH 7.4
Protocol: as §1

[5] = target: T1, human PCSK9 with a C-terminal …; assay: SPR (Biacore), 37 °C; antibody captured on anti-human Fc surface, hPCSK9-mmH injected (3.125-50 nM); association at pH 7.4, dissociation at pH 5.75
Protocol: as §1

[6] = target: T1, human PCSK9 with a C-terminal …; assay: SPR (Biacore), 37 °C; antibody captured on anti-human Fc surface, hPCSK9-mmH injected (3.125-50 nM); association at pH 7.4, dissociation at pH 7.2
Protocol: All experiments were carried out at 37° C.
as §1

[7] = target: T1, human PCSK9 with a C-terminal …; assay: SPR 25C pH 6.0, purified mAb captured
[8] = target: T1, human PCSK9 with a C-terminal …; assay: SPR 25C pH 7.4, purified mAb captured
Protocol: A Biacore CM4 sensor chip was derivatized with a monoclonal mouse anti-human Fc antibody to capture human antibodies. The histidine substitution variant anti-PCSK9 antibodies were captured onto the anti-human Fc sensor surface from culture medium after transient expression in Chinese hamster ovary (CHO) cells. […] Kinetic association (kₐ) and dissociation (kd) rate constants were determined by processing and fitting the data to a 1:1 binding model using Scrubber 2.0 curve fitting software. Binding dissociation equilibrium constants (KD) and dissociative half-lives (t_{1/2}) were calculated from the kinetic rate constants as: KD (M)=kd/kₐ; and t_{1/2} (min)=(In2/(60*kd).
All measurements were taken at 25° C.

[9] = target: T1, human PCSK9 with a C-terminal …; assay: blocking ELISA pH 7.2, 500 pM hPCSK9-mmH vs coated hLDLR EGFA-hFc
Protocol: Briefly, hLDLR EGFA-hFc was coated at 2 μg/mL in PBS on a 96-well microtiter plate overnight at 4° C. followed by blocking with a solution of 0.5% (w/v) BSA in PBS.
The equilibrated sample solutions were then transferred to a LDLR EGFA-hFc coated plate.

[10] = target: T1, human PCSK9 with a C-terminal …; assay: blocking ELISA pH 7.2, 500 pM hPCSK9-mmH vs coated hLDLR EGFA-hFc, exp #2
Description: The equilibrated sample solutions were then transferred to the LDLR EGFA-hFc coated plate prepared as described above.

B1: VH-D106H/VK-L30H (antibody, IgG4, V domains shown)
VH: EMQLVESGGGLVQPGGSLRLSCAASGFTFSSHWMKWVRQAPGKGLEWVANINQDGSEKYYVDSVKGRFTISRDNAKNSLFLQMNSLRAEDTAVYYCARDIVLMVYHMDYYYYGMDVWGQGTTVTVSS
VL: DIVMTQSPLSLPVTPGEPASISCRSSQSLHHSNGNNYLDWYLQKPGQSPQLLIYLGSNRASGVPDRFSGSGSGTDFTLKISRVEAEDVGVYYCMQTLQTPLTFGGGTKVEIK
notes: double His variant of 300N; also called VH-D106/VK-L30H; VH-D016H/VK-L30H
With B1 the “IC50 ratio (pH 5.75/pH 7.2)” value [1] was over 500, the “KD ratio pH 6.0/pH 7.4” value [2] was 15.7 and the “ka ratio pH 6.0/pH 7.4” value [2] was 1.79. For the same binder, the “kd ratio pH 6.0/pH 7.4” value [2] was 28.4, the “t½ ratio pH 6.0/pH 7.4” value [2] was 0.04 and the “t½ (dissociative half-life)” value [3] was 0.2 min. For the same binder, the “t½ (dissociative half-life)” value [4] was 8.7 min, the “t½ (dissociative half-life)” value [5] was 0.1 min and the “t½ (dissociative half-life)” value [6] was 8.9 min. It also gave a Kd [7] of 42.1 nM, a koff [7] of 0.0079 s⁻¹ and a kon [7] of 186000 M⁻¹ s⁻¹. It also gave a t½ [7] of 1.5 min, a Kd [8] of 2.68 nM and a koff [8] of 0.000278 s⁻¹. The kon [8] was 104000 M⁻¹ s⁻¹, the t½ [8] was 41.5 min and the IC50 [9] was 0.354 nM. The IC50 [10] was 0.461 nM.
